According to patent US6953577B2, “Human methionine aminopeptidase type 3” (Pharmacia Corporation, priority 1999, dated 2005):

B1: recombinant human MetAP-3 (Homo sapiens) (protein)
chain: SSPLNHIYLHKQSSSQQRRNFFFRRQRDISHSIVLPAAVSSAHPVPKHIKKPDYVTTGIVPDWGDSIEVKNEDQIQGLHQACQLARHVLLLAGKSLKVDMTTEEIDALVHREIISHNAYPSPLGYGGFPKSVCTSVNNVLCHGIPDSRPLQDGDIINIDVTVYYNGYHGDTSETFLVGNVDECGKKLVEVARRCRDEAIAACRAGAPFSVIGNTISHITHQNGFQVCPHFVGHGIGSYFHGHPEIWHHANDSDLPMEEGMAFTIEPIITEGSPEFKVLEDAWTVVSLDNQRSAQFEHTVLITSRGAQILTKLPHEA
notes: The coding region of hMetAP-3 was also cloned into the EcoRI/HindIII sites of the pET43a vector and expressed as a fusion protein; NusA (N, cleaved yes); 6xHis (N, cleaved yes); made in house; host or cells: E. coli Tuner (DE3)plysS, pET43a
B2: recombinant human MetAP-2 (Homo sapiens) (protein)
chain: MAGVEEVAASGSHLNGDLDPDDREEGAASTAEEAAKKKRRKKKKSKGPSAAGEQEPDKESGASVDEVARQLERSALEDKERDEDDEDGDGDGDGATGKKKKKKKKKRGPKVQTDPPSVPICDLYPNGVFPKGQECEYPPTQDGRTAAWRTTSEEKKALDQASEEIWNDFREAAEAHRQVRKYVMSWIKPGMTMIEICEKLEDCSRKLIKENGLNAGLAFPTGCSLNNCAAHYTPNAGDTTVLQYDDICKIDFGTHISGRIIDCAFTVTFNPKYDTLLKAVKDATNTGIKCAGIDVRLCDVGEAIQEVMESYEVEIDGKTYQVKPIRNLNGHSIGQYRIHAGKTVPIVKGGEATRMEEGEVYAIETFGSTGKGVVHDDMECSHYMKNFDVGHVPIRLPRTKHLLNVINENFGTLAFCRRWLDRLGESKYLMALKNLCDLGIVDPYPPLCDIKGSYTAQFEHTILLRPTCKEVVSRGDDY

Legend:
[1] = substrate: CSCC[C@H](N)C(=O)N[C@@H](C)C(=O)N[C@@H](CO)C(=O)O; assay: Methionine aminopeptidase activity assay (methionine release from tripeptide, coupled L-amino acid oxidase/Amplex Red); format: biochemical, human; conditions: other: hydrolysis of methionine from MAS peptide substrate; pH 7.5
Method: (§1) Hydrogen peroxide, produced by the L-amino acid oxidase reaction, was measured by monitoring the formation of resorufin from Amplex Red in a reaction catalyzed by of horseradish peroxidase. […] The reaction was performed in a 96-well plate format at ambient temperature using the following assay buffer: 20 mM HEPES-Na pH 7.5, 100 mM NaCl, 0.1 mM CoCl2 containing 100 μM Amplex Red, 0.15 U/ml L-amino acid oxidase, 0.5 U/ml horseradish peroxidase.
(§2) The IC50 values were determined under conditions in which enzyme concentration and reaction time were linear.

[2] = substrate: CSCC[C@H](N)C(=O)N[C@@H](C)C(=O)N[C@@H](CO)C(=O)O; assay: purified protein, by the assay type; conditions: other: hydrolysis of methionine from MAS peptide substrate; pH 7.5
Method: as §1, §2

Protein	Km [1] [µM]	kcat [1] [s⁻¹]	Km [2] [µM]	kcat [2] [s⁻¹]
B1	600	0.06	–	–
B2	–	–	300	2.3
